Our source for the Kd, koff and kon values is article doi:10.1101/2025.10.22.684031.

A word on the Kd: it is the constant that tells how readily two partners part at equilibrium. A low value points to tighter binding. What is called koff is the rate constant with which the complex falls apart. For orientation: kon means the rate constant with which the complex forms. A low value points to slow association.

Among the targets are N49P7-FR IgG1; eN49P7-FRv1-23 IgG1; N49P7 IgG1.
What all share (test): SPR
In general terms: SPR reads the build-up and loss of mass on a sensor chip optically.

Chain of eN49P7-FRv1-23 IgG1 (VH, as listed by the source, chain 1 of 2): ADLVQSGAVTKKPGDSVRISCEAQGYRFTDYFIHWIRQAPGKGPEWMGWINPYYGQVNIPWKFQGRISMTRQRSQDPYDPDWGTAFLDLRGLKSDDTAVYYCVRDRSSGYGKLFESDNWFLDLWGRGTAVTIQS
Chain of eN49P7-FRv1-23 IgG1 (VL, as listed by the source, chain 2 of 2): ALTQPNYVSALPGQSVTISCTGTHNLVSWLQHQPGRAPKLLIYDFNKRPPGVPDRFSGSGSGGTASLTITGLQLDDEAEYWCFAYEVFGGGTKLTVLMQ
Chain of N49P7-FR IgG1 (VH, as listed by the source, chain 1 of 2): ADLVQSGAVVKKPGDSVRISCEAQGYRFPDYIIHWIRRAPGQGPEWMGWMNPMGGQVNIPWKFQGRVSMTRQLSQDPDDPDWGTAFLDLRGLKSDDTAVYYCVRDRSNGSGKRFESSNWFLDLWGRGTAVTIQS
Chain of N49P7-FR IgG1 (VL, as listed by the source, chain 2 of 2): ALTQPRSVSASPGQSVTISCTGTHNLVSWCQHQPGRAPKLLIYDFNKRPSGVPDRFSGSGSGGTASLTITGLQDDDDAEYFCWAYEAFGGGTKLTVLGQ
Chain of N49P7 IgG1 (heavy, as listed by the source, chain 1 of 2): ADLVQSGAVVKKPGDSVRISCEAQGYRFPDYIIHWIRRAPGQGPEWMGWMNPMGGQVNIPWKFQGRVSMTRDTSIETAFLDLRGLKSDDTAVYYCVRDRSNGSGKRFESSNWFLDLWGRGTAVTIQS
Chain of N49P7 IgG1 (light, as listed by the source, chain 2 of 2): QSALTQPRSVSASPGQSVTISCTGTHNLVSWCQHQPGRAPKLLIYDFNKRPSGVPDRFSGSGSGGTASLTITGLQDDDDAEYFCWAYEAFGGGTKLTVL

As to “HIV gp120 93TH057 (clade AE) (natural protein)”, in the assay with N49P7-FR IgG1, the Kd was 19 nM, the koff was determined as 0.0022 s⁻¹ and the kon came out at 120000 M⁻¹ s⁻¹. In the assay with eN49P7-FRv1-23 IgG1, this substance registered an equilibrium dissociation constant (Kd) of 29 nM, a dissociation rate constant (koff) of 0.0015 s⁻¹ and a kon of 51000 M⁻¹ s⁻¹.

In the case of “HIV gp120 6041.v3 (clade AC) (natural protein)”, in the assay with N49P7 IgG1, the Kd came to 100 nM, the dissociation rate constant (koff) stood at 0.0032 s⁻¹ and the kon turned out to be 31000 M⁻¹ s⁻¹. In the assay with N49P7-FR IgG1, this substance came in with a Kd of 190 nM, a koff of 0.0026 s⁻¹ and a kon of 14000 M⁻¹ s⁻¹. Also, in the assay with eN49P7-FRv1-23 IgG1, the Kd amounted to 24 nM, the dissociation rate constant (koff) came to 0.001 s⁻¹ and the kon was 44000 M⁻¹ s⁻¹.

With “HIV gp120 BJOX2000 (clade BC) (natural protein)”, the Kd with N49P7 IgG1 was > 1000 nM; with N49P7-FR IgG1, > 1000 nM; with eN49P7-FRv1-23 IgG1, 50 nM. The koff was 0.0024 s⁻¹ in the assay with N49P7 IgG1, 0.0025 s⁻¹ in the assay with N49P7-FR IgG1 and 0.00092 s⁻¹ in the assay with eN49P7-FRv1-23 IgG1. Besides, the kon with N49P7 IgG1 was 680 M⁻¹ s⁻¹; with N49P7-FR IgG1, 280 M⁻¹ s⁻¹; with eN49P7-FRv1-23 IgG1, 18000 M⁻¹ s⁻¹.

With “HIV gp120 CAP45 (clade C) (natural protein)”, in the assay with N49P7-FR IgG1, the Kd is 140 nM, the off-rate (koff) came out at 0.0017 s⁻¹ and the kon was 12000 M⁻¹ s⁻¹. For the same substance, in the assay with eN49P7-FRv1-23 IgG1, the equilibrium dissociation constant (Kd) is 31 nM, the koff was 0.0031 s⁻¹ and the association rate constant (kon) is 100000 M⁻¹ s⁻¹.

In the assay with N49P7-FR IgG1, “HIV gp120 CH119 (clade BC) (natural protein)” displayed a dissociation constant (Kd) of 110 nM, a koff of 0.0008 s⁻¹ and a kon of 7400 M⁻¹ s⁻¹. In the assay with eN49P7-FRv1-23 IgG1, this substance came in with a Kd of 20 nM, a koff of 0.00053 s⁻¹ and a kon of 27000 M⁻¹ s⁻¹.

“HIV gp120 CNE8 (clade AE) (natural protein)”: the equilibrium dissociation constant (Kd) was found to be 73 nM with N49P7 IgG1, 15 nM with N49P7-FR IgG1 and 47 nM with eN49P7-FRv1-23 IgG1. Besides, the koff worked out at 0.00079 s⁻¹ in the assay with N49P7 IgG1, 0.0013 s⁻¹ in the assay with N49P7-FR IgG1 and 0.0011 s⁻¹ with eN49P7-FRv1-23 IgG1. The values for the kon with N49P7 IgG1, in the assay with N49P7-FR IgG1 and in the assay with eN49P7-FRv1-23 IgG1 were 11000 M⁻¹ s⁻¹, 88000 M⁻¹ s⁻¹ and 24000 M⁻¹ s⁻¹, respectively.

Regarding “HIV gp120 Ce1176 (clade C) (natural protein)”, in the assay with N49P7-FR IgG1, the Kd is 63 nM, the koff amounted to 0.00059 s⁻¹ and the on-rate (kon) came out at 9400 M⁻¹ s⁻¹. Besides, in the assay with eN49P7-FRv1-23 IgG1, the Kd turned out to be 17 nM, the koff was 0.00069 s⁻¹ and the kon worked out at 42000 M⁻¹ s⁻¹.

On to “HIV gp120 IAVI-C22 (clade C) (natural protein)”, for which, in the assay with N49P7 IgG1, the Kd is 230 nM, the koff is 0.0011 s⁻¹ and the association rate constant (kon) is 4900 M⁻¹ s⁻¹. For the same substance, in the assay with N49P7-FR IgG1, the equilibrium dissociation constant (Kd) was > 1000 nM, the off-rate constant (koff) is 0.0014 s⁻¹ and the on-rate constant (kon) came out at 200 M⁻¹ s⁻¹. In the assay with eN49P7-FRv1-23 IgG1, this substance returned a Kd of 65 nM, a koff of 0.00092 s⁻¹ and an association rate constant (kon) of 14000 M⁻¹ s⁻¹.

In the assay with N49P7-FR IgG1, “HIV gp120 TRO.11 (clade B) (natural protein)” registered a Kd of 120 nM, a dissociation rate constant (koff) of 0.0012 s⁻¹ and an association rate constant (kon) of 9900 M⁻¹ s⁻¹. Moreover, in the assay with eN49P7-FRv1-23 IgG1, the Kd was 44 nM, the dissociation rate constant (koff) is 0.00074 s⁻¹ and the on-rate constant (kon) was determined as 17000 M⁻¹ s⁻¹.
